Paper PMC4193212

What was measured:
Assay in all cases: two-hybrid; split-ubiquitin yeast two-hybrid (DUALhunter), S. cerevisiae NMY51; bait as Cub fusion, prey as NubG fusion; growth on SD-LWHA with 45 and 55 mM 3-AT, 28°C, and β-galactosidase activity (X-gal, ONPG)
[1] = biological target: SV40 LargeT antigen (Cub) (SV40)
[2] = biological target: OpsDHN1-SK2, C-terminal truncated version (residues 1-199), split-ubiquitin fusion (Opuntia streptacantha)
[3] = biological target: Opuntia streptacantha SK3 dehydrin OpsDHN1, full-length version, split-ubiquitin fusion (Opuntia streptacantha)
[4] = biological target: OpsDHN1-S(ΔH)K3, version without the histidine-rich motif (residues 1-111/138-248), split-ubiquitin fusion (Opuntia streptacantha)

Row | β-galactosidase activity (two-hybrid reporter) (nmol ONP/min/mg protein) [2] | β-galactosidase activity (two-hybrid reporter) (nmol ONP/min/mg protein) [3] | β-galactosidase activity (two-hybrid reporter) (nmol ONP/min/mg protein) [4] | Substance | β-galactosidase activity (two-hybrid reporter) (nmol ONP/min/mg protein) [1]
1 |  |  |  | tumor suppressor Δp53 (NubG) (domain or fragment) | 656
2 | 142 | 462 | 70.5 | Opuntia streptacantha SK3 dehydrin OpsDHN1, full-length version, split-ubiquitin fusion (natural protein) | 
3 |  | 146 |  | OpsDHN1-SK2, C-terminal truncated version (residues 1-199), split-ubiquitin fusion (domain or fragment) | 
